± gives the uncertainty stated by the source.
Test: self-splicing fitness, log relative to wild type (ln ratio); higher = more splicing; Tetrahymena group I intron in knt gene, E. coli kanamycin selection, DiMSum; sequences stand for … in CUCUCU…GGAGGGAAAAGUUAUCAGGCAUGCACCUGGUAGCUAGUCUUUAAACCAAUAGAUUGCAUCGGUUUAAAAGGCAAGACCGUCAAAUUGCGGGAAAGGGGUCAACAGCCGUUCAGUACCAAGUCUCAGGGGAAACUUUGAGAUGGCCUUGCAAAGGGUAUGGUAAUAAGCUGACGGACAUGGUCCUAACCACGCAGCCAAGUCCUAAGUCAACAGAUCUUCUGUUGAUAUGGAUGCAGUUCACAGACUAAAUGUCGGUCGGGGAAGAUGUAUUCUUCUCAUAAGAUAUAGUCGGACCUCUCCUUAAUGGGAGCUAGCGGAUGAAGUGAUGCAACACUGGAGCCGCUGGGAACUAAUUUGUAUGCGAAAGUAUAUUGAUUAGUUUUGGAGUACUCGUGGUCG
Procedure, shortened: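 Library with all eight P1ex-region intron nucleotides randomised, intron inside the knt kanamycin-resistance gene on pET-22b(+), in E. coli BL21(DE3). Cells grew overnight at 37°C or 30°C on LB agar with or without 25 μg/mL kanamycin (plus 100 μg/mL carbenicillin, 50 μM IPTG, 0.2% rhamnose), in six replicate transformations. Pooled colonies were amplicon-sequenced on Illumina HiSeq 2500. DiMSum fitness is the error-weighted combination of wild-type-normalised replicate fold changes, kanamycin versus none.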

Sequence | self-splicing fitness (ln) (30 °C) | self-splicing fitness (ln) (37 °C)
ACACAGCAAUAUUACGCGUU | -4.3 ± 0.16 | -2.29 ± 0.14
ACACAGCAAUAUUACGCUAG | -1.41 ± 0.075 | -1.06 ± 0.092
ACACAGCAAUAUUACGCUUA | -1.75 ± 0.098 | -1.7 ± 0.075
ACACAGCAAUAUUACGGAUG | -1.54 ± 0.058 | -0.668 ± 0.084
ACACAGCAAUAUUACGGGCG | -0.978 ± 0.048 | -0.369 ± 0.062
ACACAGCAAUAUUACGGUGU | -5.22 ± 0.26 | -2.92 ± 0.21
ACACAGCAAUAUUACGGUUA | -1.16 ± 0.059 | -0.485 ± 0.061
ACACAGCAAUAUUACGUAAA | -3.49 ± 0.15 | -1.2 ± 0.12
ACACAGCAAUAUUACGUGGC | -3.54 ± 0.23 | -0.291 ± 0.13
ACACAGCAAUAUUACGUUAU | -3.35 ± 0.11 | -2.65 ± 0.12
ACACAGCAAUAUUACGUUCA | -1.96 ± 0.066 | -0.442 ± 0.064
ACACAGCAAUAUUACGUUUC | -3.61 ± 0.12 | -2.28 ± 0.14
ACACAGCAAUAUUACGUUUU | -3.42 ± 0.11 | -2.57 ± 0.14
ACAGAGCAAUAUUACGAACA | -2.01 ± 0.26 | -2.67 ± 0.41
ACAGAGCAAUAUUACGACAA |  | -2.31 ± 0.21
ACAGAGCAAUAUUACGACCU | -2.8 ± 0.19 | -0.728 ± 0.16
ACAGAGCAAUAUUACGACGA | -0.906 ± 0.43 | -1.83 ± 0.38
ACAGAGCAAUAUUACGAGGC | -3.42 ± 0.38 | -2.15 ± 0.25
ACAGAGCAAUAUUACGAGUC | -4.65 ± 0.38 | -1.82 ± 0.27
ACAGAGCAAUAUUACGAGUG | -4.35 ± 0.37 | -3.43 ± 0.29
ACAGAGCAAUAUUACGAUCC | -3.76 ± 0.39 | -1.5 ± 0.34
ACAGAGCAAUAUUACGAUCG | -2.71 ± 0.18 | -1.88 ± 0.23
ACAGAGCAAUAUUACGCAGG | -4.02 ± 0.18 | -2.59 ± 0.17
ACAGAGCAAUAUUACGCCUA | -1.68 ± 0.23 | -1.93 ± 0.22

Sequence | self-splicing fitness (ln) (30 °C) | self-splicing fitness (ln) (37 °C)
ACAGAGCAAUAUUACGCGUA | -3.21 ± 0.2 | -2.91 ± 0.23
ACAGAGCAAUAUUACGCUAG | -3.28 ± 0.19 | -2.61 ± 0.18
ACAGAGCAAUAUUACGCUUA | -2.01 ± 0.22 | -1.25 ± 0.16
ACAGAGCAAUAUUACGGUCA | -2.73 ± 0.22 | -0.944 ± 0.17
ACAGAGCAAUAUUACGGUGC | -3.86 ± 0.44 | -2.09 ± 0.31
ACAGAGCAAUAUUACGUCGG | -3.64 ± 0.16 | -3.58 ± 0.23
ACAGAGCAAUAUUACGUCUU | -1.48 ± 0.18 | -1.98 ± 0.18
ACAGAGCAAUAUUACGUGGA | -3.67 ± 0.31 | -2.88 ± 0.31
ACAGAGCAAUAUUACGUUUC |  | -2.31 ± 0.39
ACAUAGCAAUAUUACGAAGC |  | -1.85 ± 0.42
ACAUAGCAAUAUUACGACCG | -0.782 ± 0.098 | -0.154 ± 0.14
ACAUAGCAAUAUUACGAGCA | -2.89 ± 0.12 | -1.1 ± 0.11
ACAUAGCAAUAUUACGAGGU | -3.59 ± 0.16 | -3.3 ± 0.15
ACAUAGCAAUAUUACGAUGG | -1.64 ± 0.088 | -0.176 ± 0.11
ACAUAGCAAUAUUACGAUUG | -2.62 ± 0.1 | -0.942 ± 0.11
ACAUAGCAAUAUUACGCCCA | -0.769 ± 0.13 | -0.85 ± 0.15
ACAUAGCAAUAUUACGCGCA | -0.42 ± 0.076 | -0.818 ± 0.088
ACAUAGCAAUAUUACGCGGU | -3.36 ± 0.17 | -2.86 ± 0.26
ACAUAGCAAUAUUACGCUUG | -1.76 ± 0.11 | -1.28 ± 0.14
ACAUAGCAAUAUUACGGAGG | -3 ± 0.17 | -0.703 ± 0.15
ACAUAGCAAUAUUACGGUAC | -4.24 ± 0.33 | -2.51 ± 0.27
ACAUAGCAAUAUUACGGUCG | -1.62 ± 0.088 | -0.223 ± 0.1
ACAUAGCAAUAUUACGUGGG | -3.52 ± 0.12 | -2.75 ± 0.12
ACAUAGCAAUAUUACGUGUC | -4.9 ± 0.41 | -2.72 ± 0.28

Sequence | self-splicing fitness (ln) (30 °C) | self-splicing fitness (ln) (37 °C)
ACCAAGCAAUAUUACGACGG | -0.86 ± 0.08 | 0.495 ± 0.1
ACCAAGCAAUAUUACGAGCC | -3.61 ± 0.2 | -1.08 ± 0.15
ACCAAGCAAUAUUACGAGUG | -2.09 ± 0.052 | -1.14 ± 0.062
ACCAAGCAAUAUUACGAUAU | -3.22 ± 0.11 | -2.17 ± 0.095
ACCAAGCAAUAUUACGAUGU | -1.7 ± 0.057 | -1.03 ± 0.073
ACCAAGCAAUAUUACGCAAG | -2.05 ± 0.072 | -2.12 ± 0.12
ACCAAGCAAUAUUACGCAUU | -2.81 ± 0.085 | -1.26 ± 0.077
ACCAAGCAAUAUUACGCCCA | -1.06 ± 0.13 | -0.545 ± 0.17
ACCAAGCAAUAUUACGCCUG | -2.05 ± 0.18 | -2.31 ± 0.25
ACCAAGCAAUAUUACGCGUG | -2.41 ± 0.083 | -1.19 ± 0.07
ACCAAGCAAUAUUACGGCCU | -0.444 ± 0.072 | -0.31 ± 0.083
ACCAAGCAAUAUUACGGUGC | -2.72 ± 0.14 | -2.12 ± 0.23
ACCAAGCAAUAUUACGUACU | -0.582 ± 0.049 | -0.135 ± 0.071
ACCAAGCAAUAUUACGUAUA | -3.38 ± 0.16 | -2.36 ± 0.12
ACCAAGCAAUAUUACGUCAC | -3.68 ± 0.47 | -2.89 ± 0.27
ACCAAGCAAUAUUACGUCCU | -0.777 ± 0.058 | 0.0592 ± 0.075
ACCAAGCAAUAUUACGUGAA | -2.5 ± 0.08 | -1.54 ± 0.091
ACCAAGCAAUAUUACGUGAG | -1.19 ± 0.07 | -0.649 ± 0.086
ACCAAGCAAUAUUACGUGUC | -2.94 ± 0.11 | -3.34 ± 0.18
ACCAAGCAAUAUUACGUUUA | -2.41 ± 0.12 | -1.82 ± 0.11
ACCCAGCAAUAUUACGAAAG | -2.85 ± 0.13 | -1.47 ± 0.17
ACCCAGCAAUAUUACGAAGG | -1.71 ± 0.071 | -0.892 ± 0.1
ACCCAGCAAUAUUACGAAUA | -2.29 ± 0.14 | -1.19 ± 0.12
ACCCAGCAAUAUUACGACUU | 0.148 ± 0.042 | 0.908 ± 0.062

Sequence | self-splicing fitness (ln) (30 °C) | self-splicing fitness (ln) (37 °C)
ACCCAGCAAUAUUACGAGCC | -3.18 ± 0.15 | -1.54 ± 0.14
ACCCAGCAAUAUUACGAUGU | -0.18 ± 0.041 | -0.0583 ± 0.052
ACCCAGCAAUAUUACGCAAA | -1.21 ± 0.065 | -0.816 ± 0.068
ACCCAGCAAUAUUACGCACA | -1.56 ± 0.081 | -0.306 ± 0.11
ACCCAGCAAUAUUACGCACC | -1.17 ± 0.1 | -0.52 ± 0.16
ACCCAGCAAUAUUACGCGCU | -1.91 ± 0.097 | -1.36 ± 0.11
ACCCAGCAAUAUUACGGCAA | -0.219 ± 0.056 | -0.263 ± 0.068
ACCCAGCAAUAUUACGGCAG | -3.84 ± 0.21 | -2.74 ± 0.18
ACCCAGCAAUAUUACGGGGG | -3.46 ± 0.17 | -2.43 ± 0.15
ACCCAGCAAUAUUACGGGUA | -2.54 ± 0.11 | -1.66 ± 0.084
ACCCAGCAAUAUUACGGUAA | -1.26 ± 0.09 | -0.477 ± 0.087
ACCCAGCAAUAUUACGUAUA | -2.2 ± 0.092 | -1.2 ± 0.085
ACCCAGCAAUAUUACGUGCA | -0.703 ± 0.067 | -0.601 ± 0.072
ACCGAGCAAUAUUACGAAAU | -2.68 ± 0.27 | -2.76 ± 0.34
ACCGAGCAAUAUUACGACAG | -2.88 ± 0.17 | -2.41 ± 0.39
ACCGAGCAAUAUUACGAGAA |  | -1.8 ± 0.29
ACCGAGCAAUAUUACGAUUG | -3.69 ± 0.17 | -2.02 ± 0.18
ACCGAGCAAUAUUACGCCAU | -4.46 ± 0.36 | -2.05 ± 0.22
ACCGAGCAAUAUUACGCCUG | -3.61 ± 0.24 | -2.44 ± 0.17
ACCGAGCAAUAUUACGCUCU | -0.43 ± 0.14 | -1.25 ± 0.16
ACCGAGCAAUAUUACGCUUG | -3.65 ± 0.21 | -2.17 ± 0.26
ACCGAGCAAUAUUACGGAAC | -3.03 ± 0.29 | -1.63 ± 0.21
ACCGAGCAAUAUUACGGGAC | -2.88 ± 0.13 | -2.49 ± 0.18
ACCGAGCAAUAUUACGGGCU | -3.3 ± 0.16 | -2.59 ± 0.19

Source: the supplement of paper PMC7877785
